From doi:10.1101/686782

Assays:
Assay in all cases: cryo-EM structure
[1] = molecular target: V. mimicus FliPQR complex (FliP5Q4R1) (Vibrio mimicus)
[2] = molecular target: V. mimicus FliQ (Vibrio mimicus)
[3] = molecular target: V. mimicus FliP (Vibrio mimicus)

## V. mimicus FlhB (natural protein)
[1]
  stoichiometry N: 1

## V. mimicus FliQ (natural protein)
[2]
  stoichiometry N: 4

## V. mimicus FliP (natural protein)
[3]
  stoichiometry N: 5
